In the supplement of paper PMC10724198 one finds protein stability index data, which are given here for 116 sequences.

± gives the standard deviation of the averaged measurements.
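Further: PSI is a weighted mean of sequencing reads over stability bins, variants kept only with over 10 reads, mCherry proximal and sfGFP distal, peptide attached via GGGS linker.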

The test system of the data set is Saccharomyces cerevisiae. As to the kind of experiment: protein stability index of tFT-peptide fusion (C-terminal peptide) (PSI (0-1 scale)); higher = more stable (slower turnover). To be noted: genetic background: wild type; temperature: 30 C.
In the case of IGAHTRRRVNGA, the protein stability index is 0.675 ± 0.096. IGCCSGYGGERG registered a protein stability index of 0.691 ± 0.018.

IGGIIFICTSNK: the protein stability index came out at 0.555 ± 0.015. With IGGVSHEMKAKR the figure was 0.619 ± 0.013.

For IGLISTQYYWSL, the protein stability index came out at 0.621 ± 0.043.

In the case of IGPRGPFHLTRI, the protein stability index turned out to be 0.675 ± 0.037. With IGSEGGKNGRRK the figure was 0.616 ± 0.044; with IGVGVGIDGLPW, 0.693 ± 0.093. The sequence IHCFSVDLLVAR showed a protein stability index of 0.542 ± 0.018. With IHLTRGGNGHMD the figure was 0.6 ± 0.04; with IHPKREPRDNNI, 0.679 ± 0.015; with IHVKKNQACSLF, 0.646 ± 0.024. With IIDKQENNLKSE the figure was 0.7513 ± 0.0011. Sequence IIKPPDIQQSRQ showed a protein stability index of 0.739 ± 0.026. With IIKRKKLMEKRT the figure was 0.663 ± 0.013; with IINKRKKKKDKG, 0.644 ± 0.019. With IISAIAPFIRWD the figure was 0.69 ± 0.03; with IKGHLYDFPPGT, 0.792 ± 0.1. IKHKSKKNNCKK came in with a protein stability index of 0.744 ± 0.052. With IKIIKNDQKRIK the figure was 0.709 ± 0.061; with IKKITKTKPNHN, 0.673 ± 0.053; with IKKKKEEKKKKK, 0.586 ± 0.023.

As for IKKLNTYIKRNV, the protein stability index turned out to be 0.586 ± 0.025. With IKKLYIICQQMK the figure was 0.666 ± 0.035; with IKKNKKKKNERK, 0.675 ± 0.025; with IKQEKPTKLPEP, 0.6435 ± 0.0052.

As for IKREATNASEPN, the protein stability index was 0.686 ± 0.057.

The sequence IKREGRDNEEKK returned a protein stability index of 0.703 ± 0.039. Turning to IKTKKKKENKRR, the protein stability index came out at 0.723 ± 0.008.

For the sequence IKTLLDYESMRS, the protein stability index was determined as 0.768 ± 0.034. For IKVKRRQLKQEK, the protein stability index was 0.779 ± 0.097. With ILCPFSGCGAGG, the protein stability index was found to be 0.683 ± 0.022. ILEGFRHVSPVG yielded a protein stability index of 0.717 ± 0.085. With ILFGSILGVPLL the figure was 0.661 ± 0.01. With ILFSILHLLSYL the figure was 0.6426 ± 0.0039.

Consider ILVHFQGVHTVL, for which the protein stability index came out at 0.663 ± 0.018. With IMCPVRDSNIFS the figure was 0.733 ± 0.026; with INIKKKKKIQHI, 0.564 ± 0.016. With INKRKQKLIKKV the figure was 0.628 ± 0.0069; with INWGVRGTLSSE, 0.706 ± 0.04; with IPLSPLRSPPPR, 0.648 ± 0.023. With IPRPFRSLPFLP the figure was 0.7307 ± 0.0047. Consider IPRRMFNIRKKR, for which the protein stability index came to 0.666 ± 0.036. With IQAVHYTARVPN the figure was 0.664 ± 0.072. With IQIGESLYFWFV the figure was 0.654 ± 0.066; with IRAGRGPARVVP, 0.707 ± 0.058; with IRLMTTIITYMI, 0.44 ± 0.13. IRPNLERKIKVR returned a protein stability index of 0.6226 ± 0.0014. With IRQPNHSIGPHG the figure was 0.719 ± 0.024.

Take IRRHNVELSGYL: the protein stability index worked out at 0.641 ± 0.022. With IRRKLINYIKKG the figure was 0.619 ± 0.066; with IRRLCGSSRPLP, 0.708 ± 0.037.

The sequence IRSAGEKDRKRE registered a protein stability index of 0.696 ± 0.03. With IRSVNFNIFVKR the figure was 0.748 ± 0.057. With IRSVVLSSCWRG the figure was 0.706 ± 0.0097; with IRVADLNSSSFC, 0.888 ± 0.16; with ISIRKNSNQETM, 0.692 ± 0.14.

For the sequence ISPRSRSCAYGV, the protein stability index was determined as 0.734 ± 0.073. With ISRDNSQITRNM the figure was 0.68 ± 0.015. ITALSSPVRDKL displayed a protein stability index of 0.646 ± 0.061. With ITEGGANLEGRF the figure was 0.661 ± 0.029; with ITGPLAPYLGGF, 0.688 ± 0.037. With ITIPICTTFHHV the figure was 0.731 ± 0.029; with ITIPISGLQVGV, 0.591 ± 0.027.

ITNQVIRLSLSN: the protein stability index turned out to be 0.732 ± 0.083. With ITRAVLPARLFR the figure was 0.705 ± 0.013. With ITRDFQLWASDL the figure was 0.708 ± 0.0083; with ITSHRDSVSRWK, 0.707 ± 0.0095.

In turn, ITSQLWGVPLPY came in with a protein stability index of 0.7134 ± 0.0032. On to IVGRGGRGGWGV, for which the protein stability index is 0.685 ± 0.04.

IVLHLAASPTPP returned a protein stability index of 0.65 ± 0.015. Turning to IVLRRRKVTRRI, the protein stability index was 0.68 ± 0.043. With IVPIVDMMIIRK the figure was 0.653 ± 0.068; with IVPPALRSDGRR, 0.668 ± 0.035; with IVSPSYGEGSIR, 0.695 ± 0.026.

IVSVSLYLYHFR showed a protein stability index of 0.548 ± 0.0059. With IWFRGGPGQVPV the figure was 0.683 ± 0.027. With IWGLSGGKKLLW the figure was 0.718 ± 0.043; with IWQLRARIQAGW, 0.617 ± 0.047; with IWTRAFAPSNRF, 0.715 ± 0.02. With KACVKRVYCILE the figure was 0.58 ± 0.015; with KAEEKARGEDWQ, 0.681 ± 0.05. With KAGGGEGRDAWG, the protein stability index turned out to be 0.667 ± 0.049. With KAKKKRRGTSKN the figure was 0.703 ± 0.066; with KARMTDQLKSTS, 0.672 ± 0.045; with KATIRRGGKKEK, 0.682 ± 0.014.

In the case of KCGLQRFREAIY, the protein stability index stood at 0.61 ± 0.0084. With KCKLNDTETMGK the figure was 0.693 ± 0.026; with KCLCGVHVRLRA, 0.5901 ± 0.0017; with KDDHTLMTKYNA, 0.643 ± 0.025.

For the sequence KDEGIRENKPNH, the protein stability index stood at 0.668 ± 0.078.

KDGMATKCIAYT displayed a protein stability index of 0.657 ± 0.011. The sequence KDLEIKKEKRKD came in with a protein stability index of 0.666 ± 0.015. With KEARHCAQRKDI the figure was 0.546 ± 0.062; with KEKNKIKNREVK, 0.618 ± 0.052; with KENKKKKQRKLK, 0.774 ± 0.067. KEQKKKLKKKHG came in with a protein stability index of 0.594 ± 0.099. With KERKEKKKKKNK the figure was 0.7227 ± 0.0045. Sequence KESEKRKRENKN came in with a protein stability index of 0.698 ± 0.025. With KESKIKDKNSII the figure was 0.734 ± 0.012; with KETLRMKFNSWK, 0.6764 ± 0.0043. With KETSERKNKETG the figure was 0.624 ± 0.041; with KFKAYNIKKWKE, 0.702 ± 0.03; with KFVSQLGQRTRF, 0.745 ± 0.05. With KGEGGEGSMGGA the figure was 0.733 ± 0.053. Sequence KGGCGAGRDGRG gave a protein stability index of 0.731 ± 0.026. With KGGFGCVGLPGG the figure was 0.638 ± 0.031; with KGHQGGLSEGMI, 0.6 ± 0.092.

As to KGMEWEKGYKRL, the protein stability index was 0.838 ± 0.23.

Turning to KGQNLAVTRERE, the protein stability index turned out to be 0.7 ± 0.024. With KGRLRVGAAGCD the figure was 0.633 ± 0.011; with KGYGKTGTLRHD, 0.646 ± 0.013; with KHQNEKKQTNKA, 0.623 ± 0.034. With KIDQLDHVGLYS the figure was 0.674 ± 0.015; with KIEHEGIKTGGT, 0.757 ± 0.16; with KIFRNKHENDLK, 0.695 ± 0.026.
